Assay: yeast display, Sf9 membrane polyspecificity reagent, FACS + sequencing; frameworks hold sequencing errors
Procedure, shortened: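 Galactose induction of a Saccharomyces cerevisiae BJ5465 synthetic nanobody display library ran 36–48 hours. The cells were then stained for 1 hour at 4 °C with 10% biotinylated, detergent-solubilized Sf9 membrane reagent, pulled down on streptavidin microbeads and FACS-sorted into low and high (top ~1%) gates on expression and reagent-binding fluorescence. Labels for polyreactivity follow the gate of origin.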

Sequence | polyreactivity (PSR sort gate)
QVQLVESVGGLFQAGGSLRLSCAASGSIFAYNTMGWYRQAPGKEREFVAAISWRGGSTYYADSVKGHFTISGDNAKNTFYLQMNSLKPEDTAVYYCNARYRNTFYSRRYDYWGQGTQVTVSS | low polyreactivity
QVQLVESVGGLGQAGGSLRLSCAASGYIFRPDAMGWYRQEPGKERELVAVISSGGSTYYADSVKGRFTISRDNAKNTVYLQMNSLKPEDTAVYYCNRTLPSIGGTTYEYWRQGTQVTVSS | low polyreactivity
QVQLVESVGGLVKAGGSLRLSCAASGFIFYRYTMGWYRQDPGKERELVAGISSRGTRTYYADSVKGRFTISRDNAKNTVYLQMNSLKPEDTAVYYCAAVLTQPKKVNYWGQGTQVTVSS | high polyreactivity
QVQLVESVGGLVQAGASHRLSCAASGLNFFKYTMGWYIQAPGKERELVAAISRRGGSTYYADSVKGRFTISRDNAKNTVYLQMNSLKPDDTAVYYCNKRLGTGYYYGYDYWGQGTQVTGSS | high polyreactivity
QVQLVESVGGLVQAGASLRLSCAASGGTFPVYAMGWYRQAPGKEREMVAAISYSGVTTYYADSVKGRFTISRDNAKNTVYLQMNSLKPDDTAVYYCNADWRRWYIFSYDYWGQGTLVTVSS | low polyreactivity
QVQLVESVGGLVQAGASLRLSCAASGITFVYYALGWYRQAPGKERELVAAITSTGGSTYYADSVKGRFTISRDNAKNTVYLQMNSLKPEDTSVYYCAAVPRGTQGAMDYWGQGTQVTVSS | low polyreactivity
QVQLVESVGGLVQAGGNLRLSCAASGIIFSRYALGWYRQAPGKERELVAAITRSGGDTYYADSVKGRFTISRDHAKNTVYLQMNSLKPEDTAVYYCAADRTWYPWVATGYYWGHGTQVTVSS | low polyreactivity
QVQLVESVGGLVQAGGRLRLSCAASGFIFYEYAMGWYRQAPGKERELDPAITSGGSTDYADSVKGLFTISRDNAKNTVYLQMNSLKPEDTAVYYCNADLFTGYYWYNYCGQGTQVTVSS | low polyreactivity
QVQLVESVGGLVQAGGSHRLSCAASGSIFYYYDMGWYRQGPGKERELFAAINRGVGSTFYADSVKGRFTISRENAKNTVYLQMNSLKPEDTAVDYCSSRWYSRTRAYNYWGQGTQVTVSS | low polyreactivity
QVQLVESVGGLVQAGGSLLLSCAASGGIFWVYAMGWYRQAPGKERELVAAISNSDTSTSYADSVKGRFTISRDNAKNTVFLQMNSLKPEDTAVYYCNADSPSLSGDYWGQGTQVTVSS | low polyreactivity
QVQLVESVGGLVQAGGSLPLSGAASGSILGFNAMGWSRQAPGKDRELVASITTSGGSTYFADSVKGRFTISRDNAKNTVYLQMNSLKPEDTAVYYCAAYRRYQFVTYYYWGQGTQVTVSS | high polyreactivity
QVQLVESVGGLVQAGGSLRFTCAASGGTFRVNAMGWYRQAPGKEREFVAAISGSGSSTYYADSVKGRFTISRDNAKNTVYLQMNSLKPEDTAVYYCAARSGVGGDNDYWGQGTQVTVSS | low polyreactivity
QVQLVESVGGLVQAGGSLRIICAASGITLAWYSMGWYRKAPGKERELVASISSSGSTNYADSVKGRFTISRDNAKNTVYLQMNSLIPEETAVYYCNKDYLLLHYYIYVIEGDYWGQGTQVTVSS | low polyreactivity
QVQLVESVGGLVQAGGSLRISCAASGFIFEVYAMGWYRQAPGKERELIAAIRWSGTSTYYAYSVKGRFTISRDNAKNTFYLQMNSLKPEDTAVYYCAADSWDWHIGGEDYWGQGTQVTVSS | low polyreactivity
QVQLVESVGGLVQAGGSLRISCAASGSIFAINAMGWYRQAPVKERELVAAIRTAGRTYYADSVKGRFTISRDNAKNTVYLQMNSLKPEDSSVYDCNDGGKWIGSDYWGQGTQVTVSS | high polyreactivity
QVQLVESVGGLVQAGGSLRLICAASGSTFNWYAMGWYRQAPGKERDLVADITWRDGSTYYADSVKGRFTISRDNAKNTVYLQMNSLKPDDPAVYYCADDYTYWGIFFGYWGQGTQVTVSS | high polyreactivity
QVQLVESVGGLVQAGGSLRLSCAAAGRTFTLYAMGWYRQATGKERELVAAIRWSGSSTYSADSVKGRFTISRDNAKNTVYLQMNSLKPEDTAVYACDARAGRYDRYGYWGQGTQVSVSS | high polyreactivity
QVQLVESVGGLVQAGGSLRLSCAASALAMGWYRHAPGKERELVAVITSDGRTYYADSVKGRFTISRDNAKNTVYLQMNSLKPEDTAVYYCARDSRTIRYYAWFYPFRYDYWGQGTQVTVSS | low polyreactivity
QVQLVESVGGLVQAGGSLRLSCAASALTFQNNAMGWYRQAPGKEREFVATITSVGRTNYADSVKGRFTISRDNAKNTVYLQMNSLNPEDTAVYYCAASKARWPRGGSKYYYWGQGTQVTVSS | high polyreactivity
QVQLVESVGGLVQAGGSLRLSCAASGFIFASYAMGWYRQAPGKERELVAAISWRGGSTYYADSVKGRFTISRDNAKNTVYLQMNSLKPEDTAVYYCKAYVYVGTGRGYDTLDYWGQGTQVTLSS | low polyreactivity
QVQLVESVGGLVQAGGSLRLSCAASGFIFSPYAMGWYRQAPGKERELVAAISWNGGRTYYADSVKGRFTISRDYAKNTVYLQMNSLKPEDTAVYYCAASFRNPYSHGYWGQGTQVTVSS | high polyreactivity
QVQLVESVGGLVQAGGSLRLSCAASGFILRVNDMGWYRQAPGKERELVAAISQGDGSTYYADSVKGRFTISSDNAKNSVYLQMNSLKPEDNAVYYCNAELYRDLGGYDHWGQGTQVTVSS | low polyreactivity

Sequence | polyreactivity (PSR sort gate)
QVQLVESVGGLVQAGGSLRLSCAASGFTFARYAMGWYIQAPGKERELVAAISISGGRTYYADSVKGRFTISRDNAKNTVYLQMNSLKPEDTAVYYCNKGHVPSYDYNYWGQGTQVTVSS | high polyreactivity
QVQLVESVGGLVQAGGSLRLSCAASGFTFHAYAMGWYRQAPGKERELVAVITRGGSTYYADSVKRRFTISLDNAKNTVYLQMKSLKPEDTAVYYCAAVRTKDWRGPEMDYWGQGTQVTVSS | high polyreactivity
QVQLVESVGGLVQAGGSLRLSCAASGFTFVYNAMGWYRQAPGKEREMVAAISSRGGSTFYADSVKGRFTISRDNAKNTVYLQMNSLKPEDTAVYYCNAVPGWTYDYWGQGTQVTVSS | high polyreactivity
QVQLVESVGGLVQAGGSLRLSCAASGITFGYNAMGWYRQAPGKERELVASISYSGDSTYYADSVKGRFTISRDNAKNSVYLQMNSLKPEDTGVYYCAAGRQVLKRRYDYWGQGTQVTVSS | low polyreactivity
QVQLVESVGGLVQAGGSLRLSCAASGITFYGYTMGWYIQAPGKERELVAAITSGGITYYADSVKGRFTISRDNAKNTVYLQMNSLKPEDTAVYYCAARRYCYTSITWYDYWGQGTQVTVSS | high polyreactivity
QVQLVESVGGLVQAGGSLRLSCAASGITFYYYVMGWYRQAPGKERELVAAIDTGDSTYYADSVKGRFTISRDNAKNTVYLQMNSLKPEDTAVYYCAVDYEADNELNGPDQEYGRDSWGQGTQVTVSS | low polyreactivity
QVQLVESVGGLVQAGGSLRLSCAASGLIFLVNAMGWYRQAPGKERELVAAIDRDGGITYADSVKGRFTISRDNAKNTVYLQLNSLKPEDTAVYYCAADPSSYGRFTYDYWGQGTQVTVSS | low polyreactivity
QVQLVESVGGLVQAGGSLRLSCAASGLTFYVYAMGRYRQAPGKERELVAAITQNGGTTYYADSVKGRFTISRDNAKNTVYLQMNSLKPEDTAVYNCAARRLYAGHQYDYWGQGTQVTVSS | high polyreactivity
QVQLVESVGGLVQAGGSLRLSCAASGNTFYAYAMGWYRQAPGKERELVAAIRKSGGNTYYADSVKGRFTISRYNAKNNVYLQMYSLKPEDTAVYYCAARYRGYAFLNYDYWGQGTQVTVSS | low polyreactivity
QVQLVESVGGLVQAGGSLRLSCAASGRIFAPYAMGWYRQAPGKERELVAAIRWRGGSTSYADSVKGRFTISRDNAKNTVYLQMNSLKPEDTAVYYCNADYGFSFYWYDYWGQGTQVTVSS | low polyreactivity
QVQLVESVGGLVQAGGSLRLSCAASGRIFARYAMGWYRQAPGKERELVAAITKSVGSTYYADSVKGRFTISRDNAKKTVYLQMNSLKPEDTAVYYCARVVADSEYDYWGQGTQVTVSS | high polyreactivity
QVQLVESVGGLVQAGGSLRLSCAASGRIFGVYAMGWYRQAPGKERELVAAISEGGGSTNYADSVKGRFTISRDNAKNTVYLQMNSLKPEDTAVYYCAATYRTGVRRYYSWGQGTQVTVSS | low polyreactivity
QVQLVESVGGLVQAGGSLRLSCAASGRIFLIYSMGWYRQAPGKERELVADISKGGSSTYYADSVKGRFTISRDNAKNTVYLQMNSLKPEDSAVYYCAASGRWTGRQAAYDYWGQGTQVTVSS | high polyreactivity
QVQLVESVGGLVQAGGSLRLSCAASGRIFLWYAMGWYRQAPGKERELVAAISGSGGSTSYADSVKGRITISRDNAKNTVYLQMNSLKPEDTAVYYCAALYRTWARYKVYYWGQGTQVTVSS | high polyreactivity
QVQLVESVGGLVQAGGSLRLSCAASGRIFSVNAMGWYRQAPGKERELVAAITTRGGTTYYADSVKGRFTISRDNAKNTVYLQMNSLKPEDTAVYYCAAESSWYVYWEWAHDYWGQGTQVTVSS | low polyreactivity
QVQLVESVGGLVQAGGSLRLSCAASGRIFSVYTMGWYRQAPGKERELVAAISSGASTNYADSVKGRFTISRDNAKNTVYLQMNSLKPEDTAVYYCNAQWYLRLGASKTWVDVDYWGQGTQVTVSS | low polyreactivity
QVQLVESVGGLVQAGGSLRLSCAASGRISNDYAMGWYRQAPGKERELVATITFSGGDTYYADSVKGRFTISRDNAKNTVYLQMNSLKPEETAVYYCAASKWRSYSGVWWRLLFDYWGQGTQVTVSS | low polyreactivity
QVQLVESVGGLVQAGGSLRLSCAASGRTFDSNAMGWYRQAPGKERELVAAISYSGGSTYYADSVKGRFTISRDNAKNTVYLQMNSLKPEDTAVYYCNAGAVHKKPARDYWGQGTQVTVSS | low polyreactivity
QVQLVESVGGLVQAGGSLRLSCAASGRTFGRYAMGWYRQAPGKERELVAGISRSGDSTHYADSVKGRFTISRDNAKNTVYLQMNSLKPEDTAVYYCNKETPTIGARKYEYWGQGTQVTVSS | low polyreactivity
QVQLVESVGGLVQAGGSLRLSCAASGRTFRFYTMGWYRQAPGKERELVADISWTSGRTYYADSVKGRFTISRDNAKNTVYLQMKSLKPEDTAVYYCAAYFFSRYSLYDYWGQGTQVTVSS | high polyreactivity
QVQLVESVGGLVQAGGSLRLSCAASGRTFSGNAMGWYIQAPGKERELVAGISTSGGSTYYADSVKGRFTISRDNSKNTVYLQMNSLKPEDTAVYYCNARSRYRYYRSFGGDYWGQGTQVTVSS | high polyreactivity

— the nanobody polyreactivity screen of Harvey et al. (2022)
